Reference: patent US8951961B2, “Structural and mechanistic basis for novel compound biosynthesis using 4-electron hexose oxidase” (Academia Sinica, priority 2009, dated 2015)

Test system: Dbv29
Assay: Relative enzymatic activities of Dbv29 mutants
Assay type: biochemical, Nonomuraea sp. ATCC39727
Conditions: for Relative activity: relative to WT

Row | Molecule | catalytic activity | activity relative to WT [%] | Relative activity
1 | W399A (protein) MTGGTGADAASAGASSTRPELRGERCLPPAGPVKVTPDDPRYLNLKLRGANSRFNGEPDYIHLVGSTQQVADAVEETVRTGKRVAVRSGGHCFEDFVDNPDVKVIIDMSLLTEIAYDPSMNAFLIEPGNTLSEVYEKLYLGWNVTIPGGVCGGVGVGGHICGGGYGPLSRQFGSVVDYLYAVEVVVVNKQGKARVIVATRERDDPHHDLWWAHTGGGGGNFGVVTKYWMRVPEDVGRNPERLLPKPPATLLTSTVTFDWAGMTEAAFSRLLRNHGEWYERNSGPDSPYTGLWSQLMIGNEVPGMGESGFMMPIQVDATRPDARRLLDAHIEAVIDGVPPAEVPEPIEQRWLASTPGRGGRGPASKTKAGYLRKRLTDRQIQAVYENMTHMDGIDYGAVALIGYGGKVNTVDPAATALPQRDAILKVNYITGWANPGNEAKHLTWVRKLYADVYAETGGVPVPNDVSDGAYINYPDSDLADPGLNTSGVPWHDLYYKGNHPRLRKVKAAYDPRNHFHHALSIRP | no product was produced |  | 
2 | W399F (protein) MTGGTGADAASAGASSTRPELRGERCLPPAGPVKVTPDDPRYLNLKLRGANSRFNGEPDYIHLVGSTQQVADAVEETVRTGKRVAVRSGGHCFEDFVDNPDVKVIIDMSLLTEIAYDPSMNAFLIEPGNTLSEVYEKLYLGWNVTIPGGVCGGVGVGGHICGGGYGPLSRQFGSVVDYLYAVEVVVVNKQGKARVIVATRERDDPHHDLWWAHTGGGGGNFGVVTKYWMRVPEDVGRNPERLLPKPPATLLTSTVTFDWAGMTEAAFSRLLRNHGEWYERNSGPDSPYTGLWSQLMIGNEVPGMGESGFMMPIQVDATRPDARRLLDAHIEAVIDGVPPAEVPEPIEQRWLASTPGRGGRGPASKTKAGYLRKRLTDRQIQAVYENMTHMDGIDYGAVFLIGYGGKVNTVDPAATALPQRDAILKVNYITGWANPGNEAKHLTWVRKLYADVYAETGGVPVPNDVSDGAYINYPDSDLADPGLNTSGVPWHDLYYKGNHPRLRKVKAAYDPRNHFHHALSIRP |  | 15 | 0.16
3 | T366A (protein) MTGGTGADAASAGASSTRPELRGERCLPPAGPVKVTPDDPRYLNLKLRGANSRFNGEPDYIHLVGSTQQVADAVEETVRTGKRVAVRSGGHCFEDFVDNPDVKVIIDMSLLTEIAYDPSMNAFLIEPGNTLSEVYEKLYLGWNVTIPGGVCGGVGVGGHICGGGYGPLSRQFGSVVDYLYAVEVVVVNKQGKARVIVATRERDDPHHDLWWAHTGGGGGNFGVVTKYWMRVPEDVGRNPERLLPKPPATLLTSTVTFDWAGMTEAAFSRLLRNHGEWYERNSGPDSPYTGLWSQLMIGNEVPGMGESGFMMPIQVDATRPDARRLLDAHIEAVIDGVPPAEVPEPIEQRWLASTPGRGGRGPASKAKAGYLRKRLTDRQIQAVYENMTHMDGIDYGAVWLIGYGGKVNTVDPAATALPQRDAILKVNYITGWANPGNEAKHLTWVRKLYADVYAETGGVPVPNDVSDGAYINYPDSDLADPGLNTSGVPWHDLYYKGNHPRLRKVKAAYDPRNHFHHALSIRP |  | 11 | 0.11
4 | T366E (protein) MTGGTGADAASAGASSTRPELRGERCLPPAGPVKVTPDDPRYLNLKLRGANSRFNGEPDYIHLVGSTQQVADAVEETVRTGKRVAVRSGGHCFEDFVDNPDVKVIIDMSLLTEIAYDPSMNAFLIEPGNTLSEVYEKLYLGWNVTIPGGVCGGVGVGGHICGGGYGPLSRQFGSVVDYLYAVEVVVVNKQGKARVIVATRERDDPHHDLWWAHTGGGGGNFGVVTKYWMRVPEDVGRNPERLLPKPPATLLTSTVTFDWAGMTEAAFSRLLRNHGEWYERNSGPDSPYTGLWSQLMIGNEVPGMGESGFMMPIQVDATRPDARRLLDAHIEAVIDGVPPAEVPEPIEQRWLASTPGRGGRGPASKEKAGYLRKRLTDRQIQAVYENMTHMDGIDYGAVWLIGYGGKVNTVDPAATALPQRDAILKVNYITGWANPGNEAKHLTWVRKLYADVYAETGGVPVPNDVSDGAYINYPDSDLADPGLNTSGVPWHDLYYKGNHPRLRKVKAAYDPRNHFHHALSIRP |  | 5 | 0.05
5 | H91A (protein) MTGGTGADAASAGASSTRPELRGERCLPPAGPVKVTPDDPRYLNLKLRGANSRFNGEPDYIHLVGSTQQVADAVEETVRTGKRVAVRSGGACFEDFVDNPDVKVIIDMSLLTEIAYDPSMNAFLIEPGNTLSEVYEKLYLGWNVTIPGGVCGGVGVGGHICGGGYGPLSRQFGSVVDYLYAVEVVVVNKQGKARVIVATRERDDPHHDLWWAHTGGGGGNFGVVTKYWMRVPEDVGRNPERLLPKPPATLLTSTVTFDWAGMTEAAFSRLLRNHGEWYERNSGPDSPYTGLWSQLMIGNEVPGMGESGFMMPIQVDATRPDARRLLDAHIEAVIDGVPPAEVPEPIEQRWLASTPGRGGRGPASKTKAGYLRKRLTDRQIQAVYENMTHMDGIDYGAVWLIGYGGKVNTVDPAATALPQRDAILKVNYITGWANPGNEAKHLTWVRKLYADVYAETGGVPVPNDVSDGAYINYPDSDLADPGLNTSGVPWHDLYYKGNHPRLRKVKAAYDPRNHFHHALSIRP |  | 11 | 0.11
6 | C151A (protein) MTGGTGADAASAGASSTRPELRGERCLPPAGPVKVTPDDPRYLNLKLRGANSRFNGEPDYIHLVGSTQQVADAVEETVRTGKRVAVRSGGHCFEDFVDNPDVKVIIDMSLLTEIAYDPSMNAFLIEPGNTLSEVYEKLYLGWNVTIPGGVAGGVGVGGHICGGGYGPLSRQFGSVVDYLYAVEVVVVNKQGKARVIVATRERDDPHHDLWWAHTGGGGGNFGVVTKYWMRVPEDVGRNPERLLPKPPATLLTSTVTFDWAGMTEAAFSRLLRNHGEWYERNSGPDSPYTGLWSQLMIGNEVPGMGESGFMMPIQVDATRPDARRLLDAHIEAVIDGVPPAEVPEPIEQRWLASTPGRGGRGPASKTKAGYLRKRLTDRQIQAVYENMTHMDGIDYGAVWLIGYGGKVNTVDPAATALPQRDAILKVNYITGWANPGNEAKHLTWVRKLYADVYAETGGVPVPNDVSDGAYINYPDSDLADPGLNTSGVPWHDLYYKGNHPRLRKVKAAYDPRNHFHHALSIRP |  | 23 | 0.23
7 | H91A/C151A (protein) MTGGTGADAASAGASSTRPELRGERCLPPAGPVKVTPDDPRYLNLKLRGANSRFNGEPDYIHLVGSTQQVADAVEETVRTGKRVAVRSGGACFEDFVDNPDVKVIIDMSLLTEIAYDPSMNAFLIEPGNTLSEVYEKLYLGWNVTIPGGVAGGVGVGGHICGGGYGPLSRQFGSVVDYLYAVEVVVVNKQGKARVIVATRERDDPHHDLWWAHTGGGGGNFGVVTKYWMRVPEDVGRNPERLLPKPPATLLTSTVTFDWAGMTEAAFSRLLRNHGEWYERNSGPDSPYTGLWSQLMIGNEVPGMGESGFMMPIQVDATRPDARRLLDAHIEAVIDGVPPAEVPEPIEQRWLASTPGRGGRGPASKTKAGYLRKRLTDRQIQAVYENMTHMDGIDYGAVWLIGYGGKVNTVDPAATALPQRDAILKVNYITGWANPGNEAKHLTWVRKLYADVYAETGGVPVPNDVSDGAYINYPDSDLADPGLNTSGVPWHDLYYKGNHPRLRKVKAAYDPRNHFHHALSIRP |  | 5 | 0.05
8 | Y165F/Y473F (protein) MTGGTGADAASAGASSTRPELRGERCLPPAGPVKVTPDDPRYLNLKLRGANSRFNGEPDYIHLVGSTQQVADAVEETVRTGKRVAVRSGGHCFEDFVDNPDVKVIIDMSLLTEIAYDPSMNAFLIEPGNTLSEVYEKLYLGWNVTIPGGVCGGVGVGGHICGGGFGPLSRQFGSVVDYLYAVEVVVVNKQGKARVIVATRERDDPHHDLWWAHTGGGGGNFGVVTKYWMRVPEDVGRNPERLLPKPPATLLTSTVTFDWAGMTEAAFSRLLRNHGEWYERNSGPDSPYTGLWSQLMIGNEVPGMGESGFMMPIQVDATRPDARRLLDAHIEAVIDGVPPAEVPEPIEQRWLASTPGRGGRGPASKTKAGYLRKRLTDRQIQAVYENMTHMDGIDYGAVWLIGYGGKVNTVDPAATALPQRDAILKVNYITGWANPGNEAKHLTWVRKLYADVYAETGGVPVPNDVSDGAYINFPDSDLADPGLNTSGVPWHDLYYKGNHPRLRKVKAAYDPRNHFHHALSIRP | total loss of catalytic activity |  | 
9 | C161A (protein) MTGGTGADAASAGASSTRPELRGERCLPPAGPVKVTPDDPRYLNLKLRGANSRFNGEPDYIHLVGSTQQVADAVEETVRTGKRVAVRSGGHCFEDFVDNPDVKVIIDMSLLTEIAYDPSMNAFLIEPGNTLSEVYEKLYLGWNVTIPGGVCGGVGVGGHIAGGGYGPLSRQFGSVVDYLYAVEVVVVNKQGKARVIVATRERDDPHHDLWWAHTGGGGGNFGVVTKYWMRVPEDVGRNPERLLPKPPATLLTSTVTFDWAGMTEAAFSRLLRNHGEWYERNSGPDSPYTGLWSQLMIGNEVPGMGESGFMMPIQVDATRPDARRLLDAHIEAVIDGVPPAEVPEPIEQRWLASTPGRGGRGPASKTKAGYLRKRLTDRQIQAVYENMTHMDGIDYGAVWLIGYGGKVNTVDPAATALPQRDAILKVNYITGWANPGNEAKHLTWVRKLYADVYAETGGVPVPNDVSDGAYINYPDSDLADPGLNTSGVPWHDLYYKGNHPRLRKVKAAYDPRNHFHHALSIRP |  |  | 0.84
10 | I401A (protein) MTGGTGADAASAGASSTRPELRGERCLPPAGPVKVTPDDPRYLNLKLRGANSRFNGEPDYIHLVGSTQQVADAVEETVRTGKRVAVRSGGHCFEDFVDNPDVKVIIDMSLLTEIAYDPSMNAFLIEPGNTLSEVYEKLYLGWNVTIPGGVCGGVGVGGHICGGGYGPLSRQFGSVVDYLYAVEVVVVNKQGKARVIVATRERDDPHHDLWWAHTGGGGGNFGVVTKYWMRVPEDVGRNPERLLPKPPATLLTSTVTFDWAGMTEAAFSRLLRNHGEWYERNSGPDSPYTGLWSQLMIGNEVPGMGESGFMMPIQVDATRPDARRLLDAHIEAVIDGVPPAEVPEPIEQRWLASTPGRGGRGPASKTKAGYLRKRLTDRQIQAVYENMTHMDGIDYGAVWLAGYGGKVNTVDPAATALPQRDAILKVNYITGWANPGNEAKHLTWVRKLYADVYAETGGVPVPNDVSDGAYINYPDSDLADPGLNTSGVPWHDLYYKGNHPRLRKVKAAYDPRNHFHHALSIRP |  |  | 0.09
